From US20220112296A1 (Chugai, published 2022) come the findings set out here.

“And” between values parts separate entries of the source, which are not always exact repeats. Equal values may be shown once.

One test addresses T1, Human CD3eg linker (human).
T1 construct: CD3 epsilon and gamma subunits joined by a 29-mer linker, C-terminal Flag-tag (in the entry); also called recombinant human CD3
T1 chain: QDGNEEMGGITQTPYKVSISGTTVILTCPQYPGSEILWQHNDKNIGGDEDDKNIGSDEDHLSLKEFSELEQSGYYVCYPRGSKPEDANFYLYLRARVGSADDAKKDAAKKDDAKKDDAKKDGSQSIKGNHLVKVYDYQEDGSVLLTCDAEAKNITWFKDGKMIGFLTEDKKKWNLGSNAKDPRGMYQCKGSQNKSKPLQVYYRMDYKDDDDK
The test is described as follows: SPR Biacore T200, 25 C, Ab captured. (In SPR one partner is held on a chip, and binding of the other changes the refractive index at the surface.)

The next test has as its target T2, Human CD137 ECD (human).
T2 construct: C-terminal His-tag and biotin acceptor peptide are in the entry; also called human CD137 extracellular domain; recombinant human CD137
The experiment in a line: SPR Biacore T200, 37 C, Ab captured.

In test [1] the target is T3, biotinylated CD3 epsilon epitope peptide.
T3 construct: immobilised on CM5 chip via streptavidin
The test is described as follows: SPR Biacore, method of Ref. Ex. 12.6.

Another test addresses T4, cyno CD137-Fc (cynomolgus monkey; human, biotin-labeled).
T4 construct: whole entry named; also called biotin-labeled cynomolgus monkey CD137 fused to human IgG1 Fc fragment; not shown: human IgG1 Fc fragment
T4 chain: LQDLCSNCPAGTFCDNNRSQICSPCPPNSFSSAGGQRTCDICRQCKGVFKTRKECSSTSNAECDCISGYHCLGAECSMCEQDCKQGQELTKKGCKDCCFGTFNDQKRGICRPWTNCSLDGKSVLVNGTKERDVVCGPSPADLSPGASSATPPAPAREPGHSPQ
The experiment in a line: bead ELISA.

T2 sequence (chain, as listed by the source limits assumed): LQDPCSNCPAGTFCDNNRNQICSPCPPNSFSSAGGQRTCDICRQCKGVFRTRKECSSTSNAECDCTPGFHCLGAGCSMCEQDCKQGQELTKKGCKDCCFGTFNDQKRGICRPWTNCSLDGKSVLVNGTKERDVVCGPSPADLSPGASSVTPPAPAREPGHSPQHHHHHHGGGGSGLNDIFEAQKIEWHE
Procedure for Human CD137 ECD: (§1) Anti-human Fc (GE Healthcare) was immobilized onto all flow cells of a CM4 sensor chip using amine coupling kit (GE Healthcare). […] All antibodies and analytes were prepared in ACES pH 7.4 containing 20 mM ACES, 150 mM NaCl, 0.05% Tween 20, 0.005% NaN3. Sensor surface was regenerated each cycle with 3M MgCl2.
Procedure for Human CD3eg linker: as §1

B1: H1572L0581 (antibody, V domains shown)
VH: QVQLVESGGGLVQPGRSLRLSCAASGFKFSNVWFHWVRQAPGKGLEWVAQIKDKYNAYAAYYAPSVKGRFTISRDDSKNSIYLQMNSLKTEDTAVYYCHYVHYASASTLLPAEGVDAWGQGTTVTVSS
VL: DIVMTQSPLSLPVTPGEPASISCQPSQEVVHMNRNTYLHWYQQKPGQAPRLLIYKVSNRFPGVPDRFSGSGSGTDFTLKISRVEAEDVGVYYCAQGTSHPFTFGQGTKLEIK
What is called Kd is a measure of binding affinity in units of concentration. Read a low Kd as a tighter complex. As to B1, the Kd in the test with Human CD3eg linker is 286 nM; with Human CD137 ECD it was 52.1 nM.

B2: CE115HA340 (antibody, human IgG1, L234A L235A, N297A, V domains shown)
VH: QVQLVESGGGLVQPGRSLRLSCAASGFTFSNAWMHWVRQAPGKGLEWVAQIKDKSNNYATYYAESVKGRFTISRDDSKNSIYLQMNSLKTEDTAVYYCRYVHYAAYYGVDAWGQGTTVTVSS
VL: DIVMTQSPLSLPVTPGEPASISCRSSQSLVHSNRNTYLHWYQQKPGQAPRLLIYKVSNRFSGVPDRFSGSGSGTDFTLKISRVEAEDVGVYYCGQGTQVPYTFGQGTKLEIK
For the molecule B2, the Kd in test [1] was 20 nM and 27 nM.

B3: DADU01_3#001 (antibody, V domains shown)
VH: QVQLVESGGGLVQPGRSLRLSCAASGFTFSIAWMHWVRQAPGKGLEWVAQIKDRVNAYEAYYAPSVKGRFTISRDDSKNSIYLQMNSLKTEDTAVYYCRYVHYASYYDLLGYGGVDAWGQGTTVTVSS
VL: DIVMTQSPLSLPVTPGEPASISCRSSQSLVHSNRNTYLHWYQQKPGQAPRLLIYKVSNRFSGVPDRFSGSGSGTDFTLKISRVEAEDVGVYYCGQGTQVPYTFGQGTKLEIK
notes: also called dBBDu_126; dBBDu126
In the case of B3, the binding result with cyno CD137-Fc is recorded as “no binding”.

B4: H1579L0581 (antibody, V domains shown)
VH: QVQLVESGGGLVQPGRSLRLSCAASGFKFSHVWFHWVRQAPGKGLEWVAQIKDKYNAYAAYYAPSVKGRFTISRDDSKNSIYLQMNSLKTEDTAVYYCHYVHYASASTLLPAFGVDAWGQGTTVTVSS
VL: DIVMTQSPLSLPVTPGEPASISCQPSQEVVHMNRNTYLHWYQQKPGQAPRLLIYKVSNRFPGVPDRFSGSGSGTDFTLKISRVEAEDVGVYYCAQGTSHPFTFGQGTKLEIK
In the case of B4, the figures for the Kd with Human CD3eg linker and in the test with Human CD137 ECD were 273 nM and 275 nM, respectively.

B5: H1573L0581 (antibody, V domains shown)
VH: QVQLVESGGGLVQPGRSLRLSCAASGFKFSNVWFHWVRQAPGKGLEWVAQIKDYYNAYAAYYAPSVKGRFTISRDDSKNSIYLQMNSLKTEDTAVYYCHYVHYASASTLLPAFGVDAWGQGTTVTVSS
VL: DIVMTQSPLSLPVTPGEPASISCQPSQEVVHMNRNTYLHWYQQKPGQAPRLLIYKVSNRFPGVPDRFSGSGSGTDFTLKISRVEAEDVGVYYCAQGTSHPFTFGQGTKLEIK
For the molecule B5, the Kd with Human CD3eg linker amounted to 156 nM; with Human CD137 ECD it was 70.6 nM.

B6: H1595L0581 (antibody, V domains shown)
VH: QVQLVESGGGLVQPGRSLRLSCAASGFKFSNTWMHWVRQAPGKGLEWVAQIKDKYNAYAAYYAPSVKGRFTISRDDSKNSIYLQMNSLKTEDTAVYYCHYIHYASASTLLPAFGVDAWGQGTTVTVSS
VL: DIVMTQSPLSLPVTPGEPASISCQPSQEVVHMNRNTYLHWYQQKPGQAPRLLIYKVSNRFPGVPDRFSGSGSGTDFTLKISRVEAEDVGVYYCAQGTSHPFTFGQGTKLEIK
Consider B6, for which the results for the Kd with Human CD3eg linker and with Human CD137 ECD were 57 nM and 195 nM, respectively.

B7: H1643L0581 (antibody, V domains shown)
VH: QVQLVESGGGLVQPGRSLRLSCAASGFKFSNVWFHWVRQAPGKGLEWVAQIKDYYNAYAAYYAPSVKGRFTISRDDSKNSIYLQMNSLKTEDTAVYYCHYVHYASASTLLPAEGVDAWGQGTTVTVSS
VL: DIVMTQSPLSLPVTPGEPASISCQPSQEVVHMNRNTYLHWYQQKPGQAPRLLIYKVSNRFPGVPDRFSGSGSGTDFTLKISRVEAEDVGVYYCAQGTSHPFTFGQGTKLEIK
notes: also called H1643L581; Dual
For B7, the Kd in the test with Human CD3eg linker amounted to 288 nM; with Human CD137 ECD, 47.9 nM.

B8: H1673L0943 (antibody, V domains shown)
VH: QVQLVESGGGLVQPGRSLRLSCAASGFVFSNVWFHWVRQAPGKGLEWVAQIKDKWNAYADYYAPSVKERFTISRDDSKNSIYLQMNSLKTEDTAVYYCHYIHYASASTLLPAEGIDAWGQGTTVTVSS
VL: DIVMTQSPLSLPVTPGEPASISCQPSEEVVHMNRNTYLHWYQQKPGQAPRLLIYKVSNLFPGVPDRFSGSGSGTDFTLKISRVEAEDVGVYYCAQGTHHPFTFGQGTKLEIK
As for B8, the Kd with Human CD3eg linker was determined as 24.6 nM; with Human CD137 ECD, 56.5 nM.
